Measured values taken from PMC3005623 (Journal of molecular biology, 2010).
Like-named read-outs stand apart in the source and are kept apart here.

B1: Cdc10 (natural protein, S. cerevisiae, UniProt P25342 1-322, looked up)
chain: MDPLSSVQPASYVGFDTITNQIEHRLLKKGFQFNIMVVGQSGLGKSTLINTLFASHLIDSATGDDISALPVTKTTEMKISTHTLVEDRVRLNINVIDTPGFGDFIDNSKAWEPIVKYIKEQHSQYLRKELTAQRERFITDTRVHAILYFLQPNGKELSRLDVEALKRLTEIANVIPVIGKSDTLTLDERTEFRELIQNEFEKYNFKIYPYDSEELTDEELELNRSVRSIIPFAVVGSENEIEINGETFRGRKTRWSAINVEDINQCDFVYLREFLIRTHLQDLIETTSYIHYEGFRARQLIALKENANSRSSAHMSSNAIQR
B2: Cdc3(K90A R93A R94A)–Cdc11–(His)6–Cdc12-Cdc10 complex (complex, S. cerevisiae)
chain 1: MSLKEEQVSIKQDPEQEERQHDQFNDVQIKQESQDHDGVDSQYTNGTQNDDSERFEAAESDVKVEPGLGMGITSSQSEKGQVLPDQPEIAFIAAQINGYVGFANLPKQWHRRSIKNGFSFNLLCVGPDGIGKTTLMKTLFNNDDIEANLVKDYEEELANDQEEEEGQGEGHENQSQEQRHKVKIKSYESVIEENGVKLNLNVIDTEGFGDFLNNDQKSWDPIIKEIDSRFDQYLDAENKINRHSINDKRIHACLYFIEPTGHYLKPLDLKFMQSVYEKCNLIPVIAKSDILTDEEILSFKKTIMNQLIQSNIELFKPPIYSNDDAENSHLSERLFSSLPYAVIGSNDIVENYSGNQVRGRSYPWGVIEVDNDNHSDFNLLKNLLIKQFMEELKERTSKILYENYRSSKLAKLGIKQDNSVFKEFDPISKQQEEKTLHEAKLAKLEIEMKTVFQQKVSEKEKKLQKSETELFARHKEMKEKLTKQLKALEDKKKQLELSINSASPNVNHSPVPTKKKGFLR
chain 2: MSGIIDASSALRKRKHLKRGITFTVMIVGQSGSGRSTFINTLCGQQVVDTSTTILLPTDTSTEIDLQLREETVELEDDEGVKIQLNIIDTPGFGDSLDNSPSFEIISDYIRHQYDEILLEESRVRRNPRFKDGRVHCCLYLINPTGHGLKEIDVEFIRQLGSLVNIIPVISKSDSLTRDELKLNKKLIMEDIDRWNLPIYNFPFDEDEISDEDYETNMYLRTLLPFAIIGSNEVYEMGGDVGTIRGRKYPWGILDVEDSSISDFVILRNALLISHLHDLKNYTHEILYERYRTEALSGESVAAESIRPNLTKLNGSSSSSTTTRRNTNPFKQSNNINNDVLNPASDMHGQSTGENNETYMTREEQIRLEEERLKAFEERVQQELLLKRQELLQREKELREIEARLEKEAKIKQEE
chain 3: MSAATATAAPVPPPVGISNLPNQRYKIVNEEGGTFTVMLCGESGLGKTTFINTLFQTVLKRADGQQHRQEPIRKTVEIDITRALLEEKHFELRVNVIDTPGFGDNVNNNKAWQPLVDFIDDQHDSYMRQEQQPYRTKKFDLRVHAVLYFIRPTGHGLKPIDIETMKRLSTRANLIPVIAKADTLTAQELQQFKSRIRQVIEAQEIRIFTPPLDADSKEDAKSGSNPDSAAVEHARQLIEAMPFAIVGSEKKFDNGQGTQVVARKYPWGLVEIENDSHCDFRKLRALLLRTYLLDLISTTQEMHYETYRRLRLEGHENTGEGNEDFTLPAIAPARKLSHNPRYKEEENALKKYFTDQVKAEEQRFRQWEQNIVNERIRLNGDLEEIQGKVKKLEEQVKSLQVKKSHLK
chain 4: MDPLSSVQPASYVGFDTITNQIEHRLLKKGFQFNIMVVGQSGLGKSTLINTLFASHLIDSATGDDISALPVTKTTEMKISTHTLVEDRVRLNINVIDTPGFGDFIDNSKAWEPIVKYIKEQHSQYLRKELTAQRERFITDTRVHAILYFLQPNGKELSRLDVEALKRLTEIANVIPVIGKSDTLTLDERTEFRELIQNEFEKYNFKIYPYDSEELTDEELELNRSVRSIIPFAVVGSENEIEINGETFRGRKTRWSAINVEDINQCDFVYLREFLIRTHLQDLIETTSYIHYEGFRARQLIALKENANSRSSAHMSSNAIQR
B3: Cdc3(R111A R112A K115A)–Cdc11–(His)6–Cdc12-Cdc10 complex (complex, S. cerevisiae)
chain 1: MSLKEEQVSIKQDPEQEERQHDQFNDVQIKQESQDHDGVDSQYTNGTQNDDSERFEAAESDVKVEPGLGMGITSSQSEKGQVLPDQPEIKFIRRQINGYVGFANLPKQWHAASIANGFSFNLLCVGPDGIGKTTLMKTLFNNDDIEANLVKDYEEELANDQEEEEGQGEGHENQSQEQRHKVKIKSYESVIEENGVKLNLNVIDTEGFGDFLNNDQKSWDPIIKEIDSRFDQYLDAENKINRHSINDKRIHACLYFIEPTGHYLKPLDLKFMQSVYEKCNLIPVIAKSDILTDEEILSFKKTIMNQLIQSNIELFKPPIYSNDDAENSHLSERLFSSLPYAVIGSNDIVENYSGNQVRGRSYPWGVIEVDNDNHSDFNLLKNLLIKQFMEELKERTSKILYENYRSSKLAKLGIKQDNSVFKEFDPISKQQEEKTLHEAKLAKLEIEMKTVFQQKVSEKEKKLQKSETELFARHKEMKEKLTKQLKALEDKKKQLELSINSASPNVNHSPVPTKKKGFLR
chain 2: MSGIIDASSALRKRKHLKRGITFTVMIVGQSGSGRSTFINTLCGQQVVDTSTTILLPTDTSTEIDLQLREETVELEDDEGVKIQLNIIDTPGFGDSLDNSPSFEIISDYIRHQYDEILLEESRVRRNPRFKDGRVHCCLYLINPTGHGLKEIDVEFIRQLGSLVNIIPVISKSDSLTRDELKLNKKLIMEDIDRWNLPIYNFPFDEDEISDEDYETNMYLRTLLPFAIIGSNEVYEMGGDVGTIRGRKYPWGILDVEDSSISDFVILRNALLISHLHDLKNYTHEILYERYRTEALSGESVAAESIRPNLTKLNGSSSSSTTTRRNTNPFKQSNNINNDVLNPASDMHGQSTGENNETYMTREEQIRLEEERLKAFEERVQQELLLKRQELLQREKELREIEARLEKEAKIKQEE
chain 3: MSAATATAAPVPPPVGISNLPNQRYKIVNEEGGTFTVMLCGESGLGKTTFINTLFQTVLKRADGQQHRQEPIRKTVEIDITRALLEEKHFELRVNVIDTPGFGDNVNNNKAWQPLVDFIDDQHDSYMRQEQQPYRTKKFDLRVHAVLYFIRPTGHGLKPIDIETMKRLSTRANLIPVIAKADTLTAQELQQFKSRIRQVIEAQEIRIFTPPLDADSKEDAKSGSNPDSAAVEHARQLIEAMPFAIVGSEKKFDNGQGTQVVARKYPWGLVEIENDSHCDFRKLRALLLRTYLLDLISTTQEMHYETYRRLRLEGHENTGEGNEDFTLPAIAPARKLSHNPRYKEEENALKKYFTDQVKAEEQRFRQWEQNIVNERIRLNGDLEEIQGKVKKLEEQVKSLQVKKSHLK
chain 4: MDPLSSVQPASYVGFDTITNQIEHRLLKKGFQFNIMVVGQSGLGKSTLINTLFASHLIDSATGDDISALPVTKTTEMKISTHTLVEDRVRLNINVIDTPGFGDFIDNSKAWEPIVKYIKEQHSQYLRKELTAQRERFITDTRVHAILYFLQPNGKELSRLDVEALKRLTEIANVIPVIGKSDTLTLDERTEFRELIQNEFEKYNFKIYPYDSEELTDEELELNRSVRSIIPFAVVGSENEIEINGETFRGRKTRWSAINVEDINQCDFVYLREFLIRTHLQDLIETTSYIHYEGFRARQLIALKENANSRSSAHMSSNAIQR
B4: Cdc10(I22E) (natural protein, S. cerevisiae, UniProt P25342 1-322, looked up)
chain: MDPLSSVQPASYVGFDTITNQEEHRLLKKGFQFNIMVVGQSGLGKSTLINTLFASHLIDSATGDDISALPVTKTTEMKISTHTLVEDRVRLNINVIDTPGFGDFIDNSKAWEPIVKYIKEQHSQYLRKELTAQRERFITDTRVHAILYFLQPNGKELSRLDVEALKRLTEIANVIPVIGKSDTLTLDERTEFRELIQNEFEKYNFKIYPYDSEELTDEELELNRSVRSIIPFAVVGSENEIEINGETFRGRKTRWSAINVEDINQCDFVYLREFLIRTHLQDLIETTSYIHYEGFRARQLIALKENANSRSSAHMSSNAIQR
B5: Cdc10(H24A R25A K28A K29A) (natural protein, S. cerevisiae, UniProt P25342 1-322, looked up)
chain: MDPLSSVQPASYVGFDTITNQIEAALLAAGFQFNIMVVGQSGLGKSTLINTLFASHLIDSATGDDISALPVTKTTEMKISTHTLVEDRVRLNINVIDTPGFGDFIDNSKAWEPIVKYIKEQHSQYLRKELTAQRERFITDTRVHAILYFLQPNGKELSRLDVEALKRLTEIANVIPVIGKSDTLTLDERTEFRELIQNEFEKYNFKIYPYDSEELTDEELELNRSVRSIIPFAVVGSENEIEINGETFRGRKTRWSAINVEDINQCDFVYLREFLIRTHLQDLIETTSYIHYEGFRARQLIALKENANSRSSAHMSSNAIQR

Experiments:
[1] = molecular target: the molecule itself; test: negative-stain electron microscopy
[2] = molecular target: the molecule itself; test: negative-stain electron microscopy; remark: listed apart in the source

Row | Protein | binding result [1] | binding result [2]
1 | B1 | binds | –
2 | B2 | – | binds
3 | B3 | – | binds
4 | B4 | binds | –
5 | B5 | binds | –
